Key:
Test in all cases: SPR (Biacore), FcγR over captured antibody; binding amount divided by that of IL6R-BF648/IL6R-L x 100
human FcγRIa = biological target: T1, human FcγRIa (human, UniProt P12314 16-292, limits assumed)
T1 construct: also called FcgRIa; FcγRI (CD64)
Description: (§1) According to the following method, relative binding activities were calculated for the results of analyzing interactions with the respective FcγRs.

human FcγRIIa type R = biological target: T2, human FcγRIIa type R (human, UniProt P12318 36-217)
T2 construct: also called FcgRIIaR; FcγRIIa(R)
T2 chain: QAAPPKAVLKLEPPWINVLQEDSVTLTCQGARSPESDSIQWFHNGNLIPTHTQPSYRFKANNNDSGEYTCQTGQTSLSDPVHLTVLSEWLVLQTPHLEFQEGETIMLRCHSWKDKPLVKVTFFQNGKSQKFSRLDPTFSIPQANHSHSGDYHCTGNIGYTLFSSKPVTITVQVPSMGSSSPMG
Description: as §1

human FcγRIIa type H = biological target: T3, human FcγRIIa type H (human, UniProt P12318 36-217)
T3 construct: also called FcgRIIaH; FcγRIIa(H)
T3 sequence: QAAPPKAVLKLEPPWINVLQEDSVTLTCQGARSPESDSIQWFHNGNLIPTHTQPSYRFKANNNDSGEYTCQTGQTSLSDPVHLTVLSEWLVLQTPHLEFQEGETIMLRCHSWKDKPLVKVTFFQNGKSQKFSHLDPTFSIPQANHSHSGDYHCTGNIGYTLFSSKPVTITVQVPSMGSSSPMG
Description: as §1

human FcγRIIb = biological target: T4, human FcγRIIb (human, UniProt P31994 43-217, limits assumed)
T4 construct: also called FcgRIIb; FcγIIB
T4 sequence: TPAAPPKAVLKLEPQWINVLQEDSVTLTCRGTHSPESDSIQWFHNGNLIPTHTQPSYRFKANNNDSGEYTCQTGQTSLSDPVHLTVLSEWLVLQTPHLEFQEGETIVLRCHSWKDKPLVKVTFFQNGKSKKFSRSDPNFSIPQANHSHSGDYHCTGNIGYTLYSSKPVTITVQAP
Description: as §1

human FcγRIIIa type V = biological target: T5, human FcγRIIIa type V (human, UniProt P08637 17-208, limits assumed)
T5 construct: also called FcgRIIIaV; FcγRIIIa(V)
T5 sequence (P08637 other isoform, or with tags, fused parts or gaps limits assumed): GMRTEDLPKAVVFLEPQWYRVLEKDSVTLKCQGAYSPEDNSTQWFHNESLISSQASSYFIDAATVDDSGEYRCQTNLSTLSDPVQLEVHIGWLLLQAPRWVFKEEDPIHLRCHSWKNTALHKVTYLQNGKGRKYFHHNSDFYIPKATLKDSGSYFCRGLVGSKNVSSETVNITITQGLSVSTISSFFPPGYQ
Description: as §1

T1 sequence (P12314 16-292 limits assumed): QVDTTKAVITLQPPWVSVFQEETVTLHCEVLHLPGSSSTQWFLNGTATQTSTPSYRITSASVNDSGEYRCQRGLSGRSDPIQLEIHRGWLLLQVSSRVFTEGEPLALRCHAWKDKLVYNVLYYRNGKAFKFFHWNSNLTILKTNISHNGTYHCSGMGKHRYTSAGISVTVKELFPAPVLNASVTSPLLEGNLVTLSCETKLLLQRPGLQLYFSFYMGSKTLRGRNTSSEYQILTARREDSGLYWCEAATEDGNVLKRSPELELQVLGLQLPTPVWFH

B1: IL6R-BP179/IL6R-L (antibody, human IgG1, name in EU numbering)
heavy: QVQLQESGPGLVKPSETLSLTCAVSGHSISHDHAWSWVRQPPGEGLEWIGFISYSGITNYNPSLQGRVTISRDNSKNTLYLQMNSLRAEDTAVYYCARSLARTTAMDYWGEGTLVTVSSASTKGPSVFPLAPSSKSTSGGTAALGCLVKDYFPEPVTVSWNSGALTSGVHTFPAVLQSSGLYSLSSVVTVPSSSLGTQTYICNVNHKPSNTKVDKKVEPKSCDKTHTCPPCPAPELLGDDSVFLFPPKPKDTLMISRTPEVTCVVVDVSHEDGEVKFNWYVDGVEVHNAKTKPREEQYNSTYRVVSVLTVLHQDWLNGKEYKCKVSNAALPKPIEKTISKAKGQPREPQVYTLPPSRDELTKNQVSLTCLVKGFYPSDIAVEWESNGQPENNYKTTPPVLDSDGSFFLYSKLTVDKSRWQQGNVFSCSVMHEALHNHYTQESLSLSP
light: DIQMTQSPSSLSASVGDRVTITCRASQDISSYLNWYQQKPGKAPKLLIYYTSRLHSGVPSRFSGSGSGTDFTFTISSLQPEDIATYYCQQGNTLPYTFGQGTKVEIK
notes: the list runs over r45 and r46; copies: 2 + 2
**Q.** For B1, which relative binding activity (human FcγRIa) is on record?
**A.** 39 relative (IL6R-BF648/IL6R-L = 100)

**Q.** What about the relative binding activity (human FcγRIIa type R) of the same binder?
**A.** 570 relative (IL6R-BF648/IL6R-L = 100)

**Q.** And the relative binding activity (human FcγRIIa type H)?
**A.** 226 relative (IL6R-BF648/IL6R-L = 100)

**Q.** And the relative binding activity (human FcγRIIb)?
**A.** 177 relative (IL6R-BF648/IL6R-L = 100)

**Q.** And the relative binding activity (human FcγRIIIa type V)?
**A.** 125 relative (IL6R-BF648/IL6R-L = 100)

B2: IL6R-BP180/IL6R-L (antibody, human IgG1, name in EU numbering)
heavy: QVQLQESGPGLVKPSETLSLTCAVSGHSISHDHAWSWVRQPPGEGLEWIGFISYSGITNYNPSLQGRVTISRDNSKNTLYLQMNSLRAEDTAVYYCARSLARTTAMDYWGEGTLVTVSSASTKGPSVFPLAPSSKSTSGGTAALGCLVKDYFPEPVTVSWNSGALTSGVHTFPAVLQSSGLYSLSSVVTVPSSSLGTQTYICNVNHKPSNTKVDKKVEPKSCDKTHTCPPCPAPELLGDDSVFLFPPKPKDTLMISRTPEVTCVVVDVSHEDGEVKFNWYVDGVEVHNAKTKPREEQYNSTYRVVSVLTVLHQDWLNGKEYKCKVSNKALPKPIEKTISKAKGQPREPQVYTLPPSRDELTKNQVSLTCLVKGFYPSDIAVEWESNGQPENNYKTTPPVLDSDGSFFLYSKLTVDKSRWQQGNVFSCSVMHEALHNHYTQESLSLSP
light: DIQMTQSPSSLSASVGDRVTITCRASQDISSYLNWYQQKPGKAPKLLIYYTSRLHSGVPSRFSGSGSGTDFTFTISSLQPEDIATYYCQQGNTLPYTFGQGTKVEIK
notes: copies: 2 + 2
**Q.** B2 was tested. Which relative binding activity (human FcγRIa) did it give?
**A.** 29 relative (IL6R-BF648/IL6R-L = 100)

**Q.** And the relative binding activity (human FcγRIIa type R)?
**A.** 602 relative (IL6R-BF648/IL6R-L = 100)

**Q.** And the relative binding activity (human FcγRIIa type H)?
**A.** 203 relative (IL6R-BF648/IL6R-L = 100)

**Q.** What about the relative binding activity (human FcγRIIb) of the same binder?
**A.** 179 relative (IL6R-BF648/IL6R-L = 100)

**Q.** What about the relative binding activity (human FcγRIIIa type V) of the same binder?
**A.** 100 relative (IL6R-BF648/IL6R-L = 100)

B3: IL6R-BP183/IL6R-L (antibody, human IgG1, name in EU numbering)
heavy: QVQLQESGPGLVKPSETLSLTCAVSGHSISHDHAWSWVRQPPGEGLEWIGFISYSGITNYNPSLQGRVTISRDNSKNTLYLQMNSLRAEDTAVYYCARSLARTTAMDYWGEGTLVTVSSASTKGPSVFPLAPSSKSTSGGTAALGCLVKDYFPEPVTVSWNSGALTSGVHTFPAVLQSSGLYSLSSVVTVPSSSLGTQTYICNVNHKPSNTKVDKKVEPKSCDKTHTCPPCPAPDYLGGDSVFLFPPKPKDTLMISRTPEVTCVVVDVSHEDGEVKFNWYVDGVEVHNAKTKPREEQYNSTYRVVSVLTVLHQDWLNGKEYKCKVSNAALPKPIEKTISKAKGQPREPQVYTLPPSRDELTKNQVSLTCLVKGFYPSDIAVEWESNGQPENNYKTTPPVLDSDGSFFLYSKLTVDKSRWQQGNVFSCSVMHEALHNHYTQESLSLSP
light: DIQMTQSPSSLSASVGDRVTITCRASQDISSYLNWYQQKPGKAPKLLIYYTSRLHSGVPSRFSGSGSGTDFTFTISSLQPEDIATYYCQQGNTLPYTFGQGTKVEIK
notes: the list runs over r52 and r53; copies: 2 + 2
**Q.** For B3, which relative binding activity (human FcγRIa) is on record?
**A.** 83 relative (IL6R-BF648/IL6R-L = 100)

**Q.** What about the relative binding activity (human FcγRIIa type R) of the same binder?
**A.** 423 relative (IL6R-BF648/IL6R-L = 100)

**Q.** And the relative binding activity (human FcγRIIa type H)?
**A.** 191 relative (IL6R-BF648/IL6R-L = 100)

**Q.** What about the relative binding activity (human FcγRIIb) of the same binder?
**A.** 164 relative (IL6R-BF648/IL6R-L = 100)

**Q.** And the relative binding activity (human FcγRIIIa type V)?
**A.** 113 relative (IL6R-BF648/IL6R-L = 100)

B4: IL6R-G1d/IL6R-L (antibody, human IgG1)
heavy: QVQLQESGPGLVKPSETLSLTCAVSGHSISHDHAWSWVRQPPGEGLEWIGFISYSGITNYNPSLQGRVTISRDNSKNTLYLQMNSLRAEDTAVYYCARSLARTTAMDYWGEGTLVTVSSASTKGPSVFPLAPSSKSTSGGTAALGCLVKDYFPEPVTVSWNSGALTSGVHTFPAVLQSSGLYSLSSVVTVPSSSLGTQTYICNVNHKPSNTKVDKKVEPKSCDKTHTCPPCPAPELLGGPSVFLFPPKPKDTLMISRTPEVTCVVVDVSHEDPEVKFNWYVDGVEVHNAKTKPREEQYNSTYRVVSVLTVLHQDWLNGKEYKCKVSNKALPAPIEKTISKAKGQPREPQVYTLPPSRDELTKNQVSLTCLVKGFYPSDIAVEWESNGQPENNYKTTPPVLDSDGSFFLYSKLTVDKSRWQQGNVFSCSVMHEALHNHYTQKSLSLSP
light: DIQMTQSPSSLSASVGDRVTITCRASQDISSYLNWYQQKPGKAPKLLIYYTSRLHSGVPSRFSGSGSGTDFTFTISSLQPEDIATYYCQQGNTLPYTFGQGTKVEIK
notes: Anti-human IL-6 receptor human IgG1 with G1d constant region (C-terminal Gly and Lys removed); template used for producing IL6R-B3; also called IgG1; copies: 2 + 2
**Q.** With B4 as the binder, how does the relative binding activity (human FcγRIa) read?
**A.** 140 relative (IL6R-BF648/IL6R-L = 100)

**Q.** And the relative binding activity (human FcγRIIa type R)?
**A.** 650 relative (IL6R-BF648/IL6R-L = 100)

**Q.** What about the relative binding activity (human FcγRIIa type H) of the same binder?
**A.** 1670 relative (IL6R-BF648/IL6R-L = 100)

**Q.** What about the relative binding activity (human FcγRIIb) of the same binder?
**A.** 62 relative (IL6R-BF648/IL6R-L = 100)

**Q.** And the relative binding activity (human FcγRIIIa type V)?
**A.** 3350 relative (IL6R-BF648/IL6R-L = 100)

Reference: US20230257470A1 (published 2023)
